We go through 47 sequences from the NTF2 design screens of Basanta et al. (2020).

The data set is described as follows: protease stability score; higher = more stable; yeast display proteolysis, trypsin and chymotrypsin.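 Further: relative to predicted unfolded state with 0 unfolded-like and 1 meaning tenfold more protease.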
“DEIEKSVKHHDQVFRTAIETGDEHELEHLADPNVRWDINGVDLHGRELYLKIVLEIRMRIELRVRDVRWQGNYIIVISEVDSHHHINGVETRDRSDAHLIIFKVNGRWELKESRRH” registered a protease stability score of 1.35.

“DEIEKVLEISYRLMHESWRTGDEDHLRDLIDPHARVIIDGRTYHGRDAMHLFVDELLREFGITQVDIEMKRIHVQGDKVESHHDINFNGQRVEVDISFHKVNGRWIAESVTWR”: the protease stability score worked out at 1.24.

As to “DEIENLIVKLAMDFIKDEITGDEERLRHLADPHTRHHIGDKHFHGMELIMKHWKTMADRFDHLEVRLEHVRVQGDKVDVHGHIIEEYNGKRIEHHIRLNVEIVDGRVTRYHVKID”, the protease stability score was 1.32.

In the case of “DEIEQIMEYLAHVHIEFIITGDEDTLEHLADPHVKIEVNGQSLVGWKHWSRFLKKLGWKRDMRVRHIHAQGDKIHVDGHLVNDFDGREFRYKTHLEIKVVDGKLKVIRIDQE”, the protease stability score was 1.41.

“DEIEREAKHVVHLLIHALLTGDERLFEELVDPDARLVINGRHYHGREEVNLAMKEWRLHRFEIKDFQYEWQGNKIISRIHTREDGHVDGQRVETRSELVIFLVKINGRWRMEFVEFRFS”: the protease stability score worked out at 2.42.

Sequence “DEIERESRKFFELWVHWYRTGNFEEIHKNLDPNARIEINGREIHGREDVLRLLEEIAKQFDHIEVELKDMHVQGDKMTIEGIIIFHFNGKRVEIHMIHIVLKINGQWFEHSQEYN” showed a protease stability score of 0.626.

“DEIERKVIEFWHLLRHALITGDEDLIEDLFDPHVRTDIGDKEHHGREEFRRLWREHGIRIKDVHIEHVTIIGNKVDMEVRFHLEINGRETHKRVILVAQKIDGRWRIREYHVK” registered a protease stability score of 1.88.

“DEIERLFRELVNLIFELLRTGNFRKLEELLDPHTRLTIGDKYYHGRESVIEYLKHLWEQLGVDHMEFHVKRVDIQGEKVNADTEIRIKIGDKTYFRDTVLIFLKIDGRWEIRAWEEK” gave a protease stability score of 1.52.

On to “DEIERLLKEVMRIFYENFQTGDEESLKELADPNVRYQIGDKSDHGREHLWRVQHEVHRRMGIKHTHLLIKSVEIVDGVAVIHGSLRLDFDGRHIEWHLHLRLKLIDGKIKEVEHELV”, for which the protease stability score came to 1.36.

“DEIERRAREFFELWMQTVRTGDEHASSELLDPHVRIEQGDKSFHGRETYNEILHHLHRHMWFEIYLDSIEIQGDKIHARVNFVYIIGDKESWIDVHIHIDVINGRMKRLEIRDH” came in with a protease stability score of 0.511.

Regarding “DEIHEDFDRFLEEYLESLRTGDWKKVEELHDPNTRVDIGDKHVIGMDLLAHLETKDFIKRGARVDMHVRRFEIQGNKIIIHGELRIHYGDKHVRINIHLDIRKINGKWIIRHEEIR”, the protease stability score is 1.13.

Take “DEIHEKVQLAAEIFEEIVRTGDEELFMRYMDPHVRLIDENEIYHGMDIWHKWLHERHEKLGAKHEEVKTRSLDLQGEKLRVEGDFVVNVNGRTFHHRLHLIYRKIDGQWRYEQISLE”: the protease stability score was 0.853.

“DEIHKDAHRFVELLLRLLRTGDEDSIEKLMDPHAKININGQERIGREETIELALHWRNDDHHIHDMITINGRVDVHGRVKGEFDGRHQEFTFRLIVLKVNGRWVNESHHYI” displayed a protease stability score of 0.83.

Sequence “DEIHKDAKEFTKRFIDSLHTGDWKELLEMFDPHTRIVVGDKEFIGMDEILRFERELGIEKVDYHLKHVEIRVQGEKADIHITGEIRFNGQTVDRELNIHARKIDGRWKVDEVNLDRR” had a protease stability score of 1.88.

“DEIHQFIEHMTKLLITALYTGDERMLEELADPHVKLDIGDKHSVGRENFVEMMKWLADHIRVRHTDIHDLKIYGEKTRVDMRVDGEVDGQRVEYRVEIFLFVVDGRLKRSSVHFK” had a protease stability score of 1.09.

For “DEIKDHVEHASRLLLETYETGDEHTLERLVDPHVKLEVNGQEHVGRETTRWMLEFFKNLKIRIEDVRWQGNKIEIHSILHFNGKDLEMIYFAEKVDGRWVIRSVRTT”, the protease stability score turned out to be 1.38.

The sequence “DEIKESAEEAQRTWVHNSLTGNEEELSRNADPDVRVIIYVNGREIRLIGREFLEELMHRVKNLTIEVDEIRFQGDKIRFNERWTVNGVPRHVDLVMHKFNGKWHIHSINIHVV” displayed a protease stability score of 1.15.

As to “DEIKKVALKMADLIFELYLTGNEELLRKLADPHMKLIIDGREFHGMHVSHEWILRELKEIRIEDWKIKDVHLQGNKVHIDLRVHGVVDGQREERDVKIHIIVINGRIHSMEMHKE”, the protease stability score worked out at 2.

“DEIKRHFDEFIKVLREIIRTGDEEDLVRLMDPNVKLEVGDKRFHGMEVLDVLHKRADHLHEFDIHDWNIQGDKARVDLRLVGQFNGRTVIDNTTLWYEKIDGKWFIKSMRIH” gave a protease stability score of 1.18.

Sequence “DEIKTELEKWLREFIRDMRTGDEDTLRQQADPNMRLDVNGQEIIGWDRILREEIRLRHDLGLTQIHVTVKDHRIQGEKIHNRGEIIYGEFRLDTILIVKKVDGRWRATDMVVV” yielded a protease stability score of 1.17.

Consider “DEILHAWSRALTILLEIWKTGNEEEVEKMFDPNTRLIIGDKILHGREHIEDFVRRVDVADMHEFRVHDSHKYGEKIDIDGHVTGRLVIGDKEVRQETRVRSIIIKVDGKWIIHRLTFI”, for which the protease stability score was 0.907.

As to “DEINEDLERQARLFYHLWLTGDEEILEKLVDPHVRIILVFNGVPKQDHGREWLMKLFEEIRVEHFEIKTFEIQGEKAIMDTHEIIHVNGKRTRLRVHLWLTMVNGRIKTIEIRFV”, the protease stability score stood at 2.13.

“DEINKMLKEVLDRYTEAIRTGDEDILLELLDPNTRVIINGQDKHGREYWYTWFAELLKRVDHQDVRFHEIRLQGDKVQVDVELIFNAENHHLHIRTDIIIEKFDGRWIITEFRMH” showed a protease stability score of 1.38.

The sequence “DEIQRLMKYVFEEWVKWFLTGDEEKFNKMVDPDVRLIVNGQHSHGREKANEMWEIYYERFDYIHEFRVHSIRIQGDKVHVDVRLIGRQGDKTIDTRTEIHLVIIDGRIKRAEVRVE” came in with a protease stability score of 2.62.

Take “DEIREEMEKVFRVFIHNMFTGDFEKLEELADPNARSKVDGVDDHGMHKFLRHWLHHVRRYGMKVEFEVHHIDVQGDKVQIDTRIVIDYNGRRFEWKSELIAVKIDGQWLIKRIIIH”: the protease stability score was determined as 1.6.

In the case of “DEIREESERFARKLVHDWQTGDWRSLLLLMDPNVRLILHFNGVEYRFHGMEIVLEWLKRLIERVDHVFFHVKDIRIQGDKIELRIEEEFRQGDKSRRHDVVLHLVVIDGKIKSISFEVL”, the protease stability score was determined as 2.7.

In turn, “DEIRKMVEESFEIILHSILTGDEHIEEFLADPHVRILINGVTFHGREEFHKLIEHYLKHWRIKDSKVDHVHAQGEKIEMRVTIHGTVDGQEQTREVIIIAKKVDGRWSMKHVEVR” registered a protease stability score of 2.08.

Regarding “DEITEHTRSLMEVMLRVWETGDWKRFRELADPNVRMNVNGREVHGRDSVAKEIYKMLSDLGVDHSTTHHVDLIGNKAHHDVRMFFNGRETEIRIDIVLINGKVREVNIEIHTR”, the protease stability score amounted to 2.14.

Consider “DEITETAERLLRLWVHNFETGNWKKMVDLIDPNARLDVNGRHIHGWEEIAKHLTDELREWRIREIRIRDVKFIDGVNHTHIESDIEYDGRRDRTEMRIIIVVVNGRIKSVKFEIL”, for which the protease stability score is 1.2.

In turn, “DEITHEIEHNLKLLLKAWETGDEHLLTEMIDPHDKIHIGDKTIIGRELRLEIEKRLGAKVVEVEIKRIEVQGDKILMHGTIHIEIGDKRFERESRFVAHKFNGRWHQKSLDII” gave a protease stability score of 1.21.

“DEITRELKHIFEEVIRAILTGDWRRLHHLLDPRVRSKFEFENRHVDLHGMETVLHWMERWSQELRVEDFHLNDFRVIGDYIVLDGRVQNRQGDKKIDVRVELIVFVVNGKVTELRETSR” showed a protease stability score of 1.17.

Take “DEITTLFRKILELMEHALKTGDWEIHKRLMDPHTKSNVNGVVAIGREELDKLWKELDKQVDHVEDSHFTEFRIQGDYIRIHVQIRIRVGDKFHDLKVDYHLVIINGVMKSSSVTFH”: the protease stability score was 0.963.

For “DEIVEMVREIAEEILHAELTGDEDKFKKLIDPNVRLQINGKDIHGMEDFRKWNEEWRIHHIEVKHLDIFEGHSRMDGKLDGTINGQRRNLKTILEIKVVDGRVKEITIHVL”, the protease stability score is 1.12.

Take “DEIYEDIKHIVDLLSHAHETGDEHELKHLADPNVKWIINGVELVGWEDFRKLLEHLRHKRVHMDPRDVKRQGDYIHVTAELRFTGVFNGREREETFEVHLHMKKVNGRWLLTSVRVK”: the protease stability score came to 1.48.

In turn, “DEKDEFNHKIAHQFSESLHTGDFKLLESLFDPNVRSDINGREIIGMEELVHFWEEWKRKFPNAKERYRTESIEHQGEKTISNMRVDLHQGDFHLHREWRVEIHIIDGVVKEVRIENR” registered a protease stability score of 1.23.

In the case of “DEKDEHMENLMREFMHSTLTGDEELLERMADPHVKVIVNGKELIGRESWRKWLEELEKRFKHAKFIWLLHRVDVQGEKANSDGVRRINFDGVNINLKTHIFIHVVNGKLKEIEIHDK”, the protease stability score is 1.33.

“DEKDEKLLRFAHEIIELFLTGNEERFTELLDPRVKLDIDGKNAVGREETQRLWEEILHRIDVMHIRIHRYKAQGNKVILDGLIHIEVGDKNEERHSRLHIHVYDGKIKSIRLEYH” registered a protease stability score of 2.08.

The sequence “DEKDELMERIARLMMEYLDTGDEENLNKLADPNVKIDIRIGDKVIDDHGMENLLHRLRHIRSNLRVHNFHAQGDFVKIDTRVTFHVNGQDIHHTVEVRLFIVNGKIHRIEFIFR” came in with a protease stability score of 2.6.

“DEKDKITQDLVKNIIDLFRTGNEDDLRRLADPHVQTHVNGRTIIGMEDASRKIKEILEELGIDHVHWHHVQAQGEKVEIHMEHRVGDKNWELIIRMDLVNGRIKRQEVELR”: the protease stability score is 0.927.

“DEKDKMSEVTLKLYIHWFLTGDWKSLFDLVDPHMQVRVGDKKFHGREQAVEEIERLLKRIDHITHIQERSFEIIGNKVHLDGELNVIIDGKRIVKDQIIIAVKIDGKWLLQIDEFE”: the protease stability score was determined as 1.92.

In turn, “DEKDNVVEHLARRLIEAELTGDWKFLSELIDPNVRVQVGNKKSHGREEYVHIAEEWWIHEQHIRHVEIQGDKVHLEVETDMVVDGRRVRIEIEIHIHIINGRIKEIRINIV” gave a protease stability score of 0.989.

On to “DEKDRISKKIVELWMRALITGDEEEMDRMADPDVRIKYGDKVSHGMEEARETWEHIRWRDIRLDHVDSYNGRIRIDGTVHIEINGREDTTRVEIILHVIDGRIKEIRVIIR”, for which the protease stability score is 1.3.

Sequence “DEKDRLSEELAKHLYRMMYTGDWERIFKMADPHVRLVIGDKEFHGRENFEETLRDHLEKIKNATMRLDDIELQGDKVHIFFTIHVNGREVEVEVHIRVIDGRIHHVDVQVRWV” showed a protease stability score of 1.49.

As for “DEKEDHMRKIALILIKDWLTGNEESLRHMADPNVRVHIHQGNKNIHKHGMEALRELWEEIRIRHFNLERQNVINGVVFIDGRVDGEVDGRRVDTDVEVIIVIVNGRMKLLSRHIE”, the protease stability score came out at 1.34.

Sequence “DEKEEAARQIMTWLLEVLLTGDERLFEHNADPNVRIDVDGVDLVGMELFRHEVRRIDHMESRMRVRRVTVQGDKVRMEVEIEVTLFINGKEIRHRRESELIVLKIDGRWIIKSTHVK” came in with a protease stability score of 1.56.

For the sequence “DEKEEEMEIASELALHVWETGDPDEFLKLADPHVKIDFDGVDIHGMDKEHERWKRVKNLTMHIKRFSYQGDKVHLDVILIVNGRTETIHIIASKVNGRWLIKRVIINRR”, the protease stability score is 1.37.

“DEKEEEYHRILREWMHWLLTGDWDKLLNNVDPHAKLTVNGREIHGMHLAVKLLVDTMRELRFHIEVKDTKVFNGVAFVDLRLHIHIGDKEHKNRSEVTLVIIDGRIHTIVIHDR” had a protease stability score of 1.56.
